The record followed here is patent publication EP3574020B1.

The target of assay [1] is A-beta42 Oligomer (synthetic) (human). The assay can be described thus: SPR; purified antibody immobilized, A-beta injected. Background: Surface plasmon resonance follows binding to a sensor surface in real time, without labels.
In assay [2] the target is T1, cyclo(CGHHQKG) cyclic peptide, conjugated to BSA.
T1 sequence (peptide, cyclized peptide, cyclo(CGHHQKG); conjugated to BSA): CGHHQKG
The experiment in a line: MAAS-2 SPR; antibody immobilized, cyclopeptide-BSA at pH 6.5, 7.5 or 8.0.

Assay [3] addresses A-beta oligomers in the low molecular weight (LMW, ~8-70 kDa) fraction of soluble human AD brain extract (human) (UniProt P05067). The experiment in a line: SPR; antibody immobilized, SEC fraction at 100ug/ml.
Assay [4] concerns the target A-beta42 Monomer (human). The experiment in a line: SPR; purified antibody immobilized, A-beta injected.
The target of assay [5] is A-beta42 Monomer (human). The experiment in a line: SPR direct binding; hybridoma supernatant over immobilized A-beta42 monomer.
Assay [6] has as its target A-beta42 Oligomer (synthetic) (human). The experiment in a line: SPR direct binding; hybridoma supernatant over immobilized A-beta42 oligomer.
The target of assay [7] is commercially-prepared stable A-beta42 Oligomers (SynAging) (human). The experiment in a line: SPR; antibody covalently immobilized, stable A-beta42 oligomers at 1 microM.
Assay [8] addresses T1, cyclo(CGHHQKG) cyclic peptide, conjugated to BSA. The assay can be described thus: SPR direct binding; hybridoma supernatant over immobilized BSA-conjugated peptide.
Assay [9] concerns the target T2, linear CGHHQKG peptide, conjugated to BSA.
T2 sequence (peptide, conjugated to BSA): CGHHQKG
The description is as above.

Sequence of A-beta42 Oligomer (synthetic) (human) (peptide, as listed by the source): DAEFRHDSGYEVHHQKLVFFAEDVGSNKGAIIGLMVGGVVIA
Sequence of A-beta42 Monomer (human) (peptide, as listed by the source): as above
Sequence of A-beta oligomers in the low molecular weight (LMW, ~8-70 kDa) fraction of soluble human AD brain extract (human) (P05067 672-713): as the sequence (peptide, as listed by the source) above
Sequence of commercially-prepared stable A-beta42 Oligomers (SynAging) (human) (peptide, as listed by the source): as above

B1: 301-17 mouse monoclonal antibody, hybridoma-purified IgG3 (antibody, V domains shown)
VH: QVQLQQPGAELVKPGASVKMSCKASGYSFTSYWINWVKQRPGQGLEWIGDVHPGRGVSTYNAKFKSKATLTLDTSSSTAYMQLSSLTSEDSAVYYCSRSHGNTYWFFDVWGAGTTVTVSSATTTAPS
VL: DVLMTQTPLSLPVSLGDQASISCRSSQSIVHSNGNTYLEWYLQKPGQSPKLLIYKVSNRFSGVPDRFSGSGSGTDFTLKISRVEAEDLGVYYCFQGSHVPFTFGSGTKLEIKRADA
In [1], B1 gave an RU of 148 RU.

B2: Recombinant 301-17 IgG1 (murine IgG1 backbone) (antibody, V domains shown)
VH: QVQLQQPGAELVKPGASVKMSCKASGYSFTSYWINWVKQRPGQGLEWIGDVHPGRGVSTYNAKFKSKATLTLDTSSSTAYMQLSSLTSEDSAVYYCSRSHGNTYWFFDVWGAGTTVTVSS
VL: DVLMTQTPLSLPVSLGDQASISCRSSQSIVHSNGNTYLEWYLQKPGQSPKLLIYKVSNRFSGVPDRFSGSGSGTDFTLKISRVEAEDLGVYYCFQGSHVPFTFGSGTKLEIKR
Consider B2, for which the BRU in assay [2] turned out to be 400 BRU.

B3: Humanized antibody of 301-17 (VH2 Vk5), human IgG4 (S241P hinge variant) / kappa (antibody, V domains shown)
VH: QVQLVQSGAEVKKPGASVKMSCKASGYSFTSYWINWVKQRPGQGLEWIGDVHPGRGVSTYNAKFKSRATLTLDTSISTAYMELSSLRSEDTAVYYCSRSHGNTYWFFDVWGQGTTVTVSS
VL: DVLMTQSPLSLPVTLGQPASISCRSSQSIVHSNGNTYLEWYQQRPGQSPRLLIYKVSNRFSGVPDRFSGSGSGTDFTLKISRVEAEDVGVYYCFQGSHVPFTFGQGTKLEIKR
B3 showed a fold binding response against aducanumab in [3] of 1.5 to 2 fold.

B4: 301-11 mouse monoclonal antibody (IgG3, kappa) (antibody, V domains shown)
VH: EVQLVESGGGLVKPGGSLKLSCAASGFTFSDYYMYWVRQTPEKRLEWVATISDGGSYTSYPDSVKGRFTISRDNAKNNLYLQMSSLRSEDTAMYYCARDYYGSSSYTSGFAYWGQGTLVTVSA
VL: DIVMSQSPSSLAVSTGEKVTMSCKSSQSLLNSRTRKNYLAWYQQKPGQSPKLLIYWASTRESGVPDRFTGSGSGTDFTLTISSVQAEDLAVYYCKQSYNLYTFGGGTKLEIK
Regarding B4, the RU in assay [4] is -14.1 RU; in assay [1] it was -2.8 RU; in assay [5], 21.6 RU; in assay [6] it was 75.3 RU; in assay [8], 488 RU; in assay [9] it was 210 RU. In [7], this molecule showed a binding response units (BRU), average of 19.3 BRU.
